This is an account of results in patent US5767078A, “Agonist peptide dimers” (priority 1995, dated 1998).

Test [1] deals with T1, truncated human EPO receptor (Homo sapiens, UniProt P19235).
T1 construct: expressed in transfected cells; host or cells: FDC-P1/trER cells (murine FDC-P1 derived)
T1 sequence (P19235 25-468 limits assumed): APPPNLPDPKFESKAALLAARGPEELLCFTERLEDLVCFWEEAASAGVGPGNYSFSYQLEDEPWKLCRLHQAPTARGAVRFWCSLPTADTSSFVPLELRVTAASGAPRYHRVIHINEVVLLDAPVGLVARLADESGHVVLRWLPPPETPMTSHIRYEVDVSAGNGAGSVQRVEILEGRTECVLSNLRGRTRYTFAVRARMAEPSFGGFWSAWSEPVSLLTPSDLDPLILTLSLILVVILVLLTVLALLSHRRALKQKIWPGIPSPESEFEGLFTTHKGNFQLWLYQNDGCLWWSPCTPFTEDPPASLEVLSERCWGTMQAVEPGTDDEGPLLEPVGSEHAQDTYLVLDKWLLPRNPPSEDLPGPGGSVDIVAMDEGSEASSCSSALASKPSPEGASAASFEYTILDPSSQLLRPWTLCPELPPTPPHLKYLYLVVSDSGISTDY
The test is described as follows: EPO dependent cell proliferation assay, FDC-P1/trER cells. Format: cell-based. As to conditions: for EC50: read-out: EPO-ED50 truncated human receptor; for change in potency of dimer versus parent monomer (in parentheses), truncated human receptor: ratio of ED50 values. The protocol:
(§1) After 24 hours, the cells were counted, resuspended at 800,000 cells/ml and dispensed at 40,000 cells/well. Stock solutions of the peptide dimer (5 mM in PBS) and peptide (10 mM in DMSO) were prepared and dispensed in triplicate to final concentrations of 1×10^-10 M through 1×10^-5 M and adjusted to a final volume of 0.2 ml. […] After a 42 hr incubation at 37° C. (ca. 2 cell doublings) 1 μCi/well of [^3 H] thymidine was added and the incubation continued for 6 hr at which time the cells were harvested and counted to assess [^3 H]thymidine incorporation as a measure of cell proliferation.

Test [2] addresses T2, extracellular domain of the human erythropoietin receptor (EPO binding protein, EBP) (Homo sapiens, UniProt P19235).
T2 construct: made in house; host or cells: E. coli
T2 sequence (P19235 25-250 limits assumed): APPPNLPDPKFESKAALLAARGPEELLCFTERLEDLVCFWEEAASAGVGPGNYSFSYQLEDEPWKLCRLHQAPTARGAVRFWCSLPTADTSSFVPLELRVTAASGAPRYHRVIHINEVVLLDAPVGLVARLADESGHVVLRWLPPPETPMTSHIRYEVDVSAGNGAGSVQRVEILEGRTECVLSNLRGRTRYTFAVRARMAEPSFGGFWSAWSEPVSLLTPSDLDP
The test is described as follows: Immobilized EBP based [125I]EPO competition binding assay. As to conditions: for Relative Binding (binding relative to Seq. I. D. No. 8): IC50 in [125I]EPO competition on EBP beads, relative to Seq. I. D. No. 8 (IC50 5 μM). The method, then: The iodoacetyl activation chemistry of Sufolink beads (Pierce Chemical Co, Rockford, Ill.) is specific for free thiols and assures that the linkage is not easily reversible. EBP-Sulfolink beads were made as follows: SulfoLink gel suspension (10 ml) was mixed with of coupling buffer (40 ml: 50 mM Tris, pH 8.3, 5 mM EDTA) and the gel was allowed to settle. […] The mixture was rocked gently for 30 minutes at room temperature and the beads were allowed to settle for 1 hour at room temperature. The supernatant was removed and retained. The beads were washed twice with 20 ml of coupling buffer. The washes were recovered as well. The beads were then treated with 20 ml of 0.05M cysteine for 30 minutes at room temperature to block unbound sites. Finally, the beads were washed with 50 ml of 1M NaCl, then with 30 ml of PBS, and resuspended in 20 ml of PBS and stored at 4° C. The amount of EBP which was covalently bound to the beads was determined by comparing the OD280 of the original EBP solution to the total OD280 recovered in the reaction supernatant and the two 20 ml washes.
Competitive binding analysis assays of candidate peptides and dimer peptides were performed as outlined below. Individual peptides were dissolved in DMSO to prepare a stock solution […]. Dimer peptides were contained within PBS at a concentration of 5 mM.
Initial assay points with no added peptide were included in each assay to determine total binding. Binding mixtures were incubated overnight at room temperature with gentle rocking. The beads were then collected using Micro-columns (Isolab, Inc.) and washed with 3 mL of wash buffer. The columns containing the washed beads were placed in 12×75 mm glass tubes and bound radioactivity levels determined in a gamma counter.

The target of the next test is T3, murine EPO receptor (Mus musculus, UniProt P14753).
T3 construct: expressed in transfected cells; host or cells: FDC-P1/ER cells
T3 sequence (P14753 25-507): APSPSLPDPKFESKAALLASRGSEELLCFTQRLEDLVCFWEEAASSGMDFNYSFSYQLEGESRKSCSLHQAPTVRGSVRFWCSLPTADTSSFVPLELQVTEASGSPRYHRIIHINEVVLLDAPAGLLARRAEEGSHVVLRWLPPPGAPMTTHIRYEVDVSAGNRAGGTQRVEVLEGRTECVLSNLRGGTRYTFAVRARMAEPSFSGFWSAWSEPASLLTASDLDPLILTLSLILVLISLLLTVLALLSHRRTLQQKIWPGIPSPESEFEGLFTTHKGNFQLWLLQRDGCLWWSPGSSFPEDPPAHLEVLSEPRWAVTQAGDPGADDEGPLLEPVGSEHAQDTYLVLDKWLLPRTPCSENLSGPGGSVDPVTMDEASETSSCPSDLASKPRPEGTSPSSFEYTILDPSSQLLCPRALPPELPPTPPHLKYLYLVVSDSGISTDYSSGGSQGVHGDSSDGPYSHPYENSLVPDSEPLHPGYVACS
The test is described as follows: EPO dependent cell proliferation assay, FDC-P1/ER cells. Format: cell-based. As to conditions: for EPO-ED50 murine receptor / change in potency of dimer versus parent monomer (in parentheses), murine receptor: FDC-P1/ER; for EPO-ED50 murine receptor: [3H]thymidine incorporation, amount giving half of maximal activity obtained with EPO; for change in potency of dimer versus parent monomer (in parentheses), murine receptor: ratio of ED50 values. The method, then: as §1

Setting [3] is: FDC-P1/trER, [3H]thymidine incorporation, amount giving half of maximal activity obtained with EPO.

Where two headings read alike, the source gives them in different places. Bridge positions count the residues as written; N and C are the ends. Ends that are not written are not given here. Peptide text beside a SMILES is read from it. A value given as a limit tells only on which side of the number the result lay.

In the case of “SAP2/Seq. I. D. No. 8 covalent dimer #1: PEG (SPA2, MW ca. 3400) dimer of peptide GGTYSCHFGPLTWVCKPQGG, lot #1, Example 2 (GGTYSCHFGPLTWVCKPQGG-NH2; disulfide 6-15 (inferred); not fully specified)”, in test [1], the “increase in potency versus parent peptide, human receptor line” value is reported as ~60 fold. Besides, the EC50 in test [1] (setting [3]) was 1.5 nM. Besides, in test [1] (FDC-P1/trER), the “change in potency of dimer versus parent monomer (in parentheses), truncated human receptor” value (shortened to “change in potency … truncated human receptor”) came to 60 X. In addition, in test [1] (text of Example 11), the “ED50, cell line containing the human EPO receptor” value is 1.5 nM. In addition, the “Relative Binding (binding relative to Seq. I. D. No. 8)” value in test [2] was found to be 4. Moreover, in test [2] (concentration reducing [125I]EPO binding to EBP beads by 50%, 0.5 nM [125I]EPO), the IC50 came out at 20000 nM. In addition, in the test with murine EPO receptor, the “increase in potency versus parent peptide, murine receptor line” value is recorded as 10 fold; the EPO-ED50 murine receptor was found to be 10 nM; the “change in potency of dimer versus parent monomer (in parentheses), murine receptor” value (“change in potency … murine receptor” below) stood at 10 X. Moreover, the “ED50, cell line containing the murine EPO receptor” value with murine EPO receptor (text of Example 11) is 10 nM.
Consider “mPEG/Seq. I. D. No. 8, peak #1: mono-PEG conjugate of peptide SEQ ID NO: 8 with m-SPA-PEG (MW ca. 5000), one PEG coupled; control (GGTYSCHFGPLTWVCKPQGG-NH2; disulfide 6-15 (inferred); not fully specified; also: one mPEG 5000 (m-SPA-PEG) conjugated, site not given here) [reference compound]”, for which the EC50 in test [1] (setting [3]) is 100 nM. Moreover, in test [2], the “Relative Binding (binding relative to Seq. I. D. No. 8)” value turned out to be 60. The molecule also had an EPO-ED50 murine receptor in the test with murine EPO receptor of 2000 nM.
On to “SAP2/Seq. I. D. No. 13 covalent dimer: PEG (SPA2) dimer of peptide GGTYSCHFGPLTWVCKPQ, Example 4 (GGTYSCHFGPLTWVCKPQ-NH2; disulfide 6-15 (inferred); also: PEG (SPA2) covalent dimer)”, for which, in test [1] (setting [3]), the EC50 was 2 nM. Further, the “change in potency … truncated human receptor” value in test [1] (FDC-P1/trER) turned out to be 10 X.
Regarding “SAP2/Seq. I. D. No. 8 covalent dimer #2: PEG (SPA2, MW ca. 3400) dimer of peptide GGTYSCHFGPLTWVCKPQGG, lot #2, Example 3 (GGTYSCHFGPLTWVCKPQGG-NH2; disulfide 6-15 (inferred); not fully specified)”, in test [1], the “increase in potency versus parent peptide, human receptor line” value is 45 fold. Moreover, the EC50 in test [1] (setting [3]) was found to be 2 nM. Besides, in test [1] (FDC-P1/trER), the “change in potency … truncated human receptor” value is listed as 45 X. For the same molecule, in test [2], the “Relative Binding (binding relative to Seq. I. D. No. 8)” value is given as 3. In the test with murine EPO receptor, the “increase in potency versus parent peptide, murine receptor line” value was found to be 10 fold; the EPO-ED50 murine receptor worked out at 10 nM; the “change in potency … murine receptor” value was determined as 10 X.
Regarding “mPEG/Seq. I. D. No. 8, peak #2: conjugate of peptide SEQ ID NO: 8 with m-SPA-PEG (MW ca. 5000), two PEG molecules coupled; control (GGTYSCHFGPLTWVCKPQGG-NH2; disulfide 6-15 (inferred); not fully specified; also: two mPEG 5000 (m-SPA-PEG) conjugated, sites not given here) [reference compound]”, the EC50 in test [1] (setting [3]) amounted to 400 nM. Moreover, in test [2], the “Relative Binding (binding relative to Seq. I. D. No. 8)” value is listed as > 40. The EPO-ED50 murine receptor with murine EPO receptor is 1000 nM.
Take “GGLYACHMGPMTWVCQPLRG [Seq. I. D. No. 14]”: the EC50 in test [1] (setting [3]) worked out at 80 nM. Also, the EPO-ED50 murine receptor with murine EPO receptor came to 100 nM.
Take “SAP2/Seq. I. D. No. 20 covalent dimer: PEG (SPA2) dimer of peptide Ac-GGTYSCHFGPLTWVCKPQGG, Example 5 (Ac-GGTYSCHFGPLTWVCKPQGG-NH2; disulfide 6-15 (inferred); also: PEG (SPA2) covalent dimer)”: in test [1] (setting [3]), the EC50 was 50 nM. Further, in test [2], the “Relative Binding (binding relative to Seq. I. D. No. 8)” value amounted to 12. Also, in the test with murine EPO receptor, the EPO-ED50 murine receptor is 200 nM and the “change in potency … murine receptor” value is reported as -7 X.
In the case of `CC(C)C[C@@H]1NC(=O)[C@@H]2CCCN2C(=O)CNC(=O)[C@H](Cc2ccccc2)NC(=O)[C@H](Cc2c[nH]cn2)NC(=O)[C@@H](NC(=O)[C@H](CO)NC(=O)[C@H](Cc2ccc(O)cc2)NC(=O)[C@@H](NC(=O)CNC(=O)CN)[C@@H](C)O)CSSC[C@@H](C(=O)N[C@@H](CCCCN)C(=O)N2CCC[C@H]2C(=O)N[C@@H](CCC(N)=O)C(=O)NCC(=O)NCC(N)=O)NC(=O)[C@H](C(C)C)NC(=O)[C@H](Cc2c[nH]c3ccccc23)NC(=O)[C@H]([C@@H](C)O)NC1=O` [Seq. I. D. No. 8] (H-GGTYSCHFGPLTWVCKPQGG-NH2; disulfide 6-15), in test [1], the EC50 turned out to be 90 nM.
For `CC(C)C[C@@H]1NC(=O)[C@@H]2CCCN2C(=O)CNC(=O)[C@H](Cc2ccccc2)NC(=O)[C@H](Cc2c[nH]cn2)NC(=O)[C@@H](NC(=O)[C@@H](N)CO)CSSC[C@@H](C(=O)N[C@@H](CCCCN)C(N)=O)NC(=O)[C@H](C(C)C)NC(=O)[C@H](Cc2c[nH]c3ccccc23)NC(=O)[C@H]([C@@H](C)O)NC1=O` [peptide (SEQ ID NO: 18)] (H-SCHFGPLTWVCK-NH2; disulfide 2-11), the “activity in the in vitro cell proliferation assay (in words)” value on murine EPO receptor (cell line not given) is “inactive”.
Regarding “Ac-GGTYSCHFGPLTWVCKPQGG (Ac-GGTYSCHFGPLTWVCKPQGG-NH2; disulfide 6-15 (inferred)) [Seq. I. D. No. 20]”, in test [1] (setting [3]), the EC50 amounted to 60 nM. Moreover, in test [2], the “Relative Binding (binding relative to Seq. I. D. No. 8)” value is on record as 4. The molecule also had an EPO-ED50 murine receptor with murine EPO receptor of 30 nM.
Turning to “dimeric peptide: PEG (SPA2) dimer of peptide SCHFGPLTWVCK (SEQ ID NO: 18), Example 7 (SCHFGPLTWVCK-NH2; disulfide 2-11 (inferred); also: PEG (SPA2) covalent dimer)”, in test [1] (10^-5 M, human EPO receptor cell line, FIG. 8), the “proliferation (cpm) relative to background” value is recorded as “twice as many cpm as background”.
